Paper PMC11098746 (2024)
No end group written: not given here.

B1: ADP309 (protein)
chain: MEAPAAGLFLLLLLGTWAPAPGSASSEAPPLINEDVKRTVDLSSHLAKVTAEVVLAHLGGGSTSRATSFLLALEPELEARLAHLGVQVKGEDEEENNLEVRETKIKGKSGRFFTVKLPVALDPGAKISVIVETVYTHVLHPYPTQITQSEKQFVVFEGNHYFYSPYPTKTQTMRVKLASRNVESYTKLGNPTRSEDLLDYGPFRDVPAYSQDTFKVHYENNSPFLTITSMTRVIEVSHWGNIAVEENVDLKHTGAVLKGPFSRYDYQRQPDSGISSIRSFKTILPAAAQDVYYRDEIGNVSTSHLLILDDSVEMEIRPRFPLFGGWKTHYIVGYNLPSYEYLYNLGDQYALKMRFVDHVFDEQVIDSLTVKIILPEGAKNIEIDSPYEISRAPDELHYTYLDTFGRPVIVAYKKNLVEQHIQDIVVHYTFNKVLMLQE
modifications: bait human Fc-tagged dimer
B2: ADP285 (protein)
chain: LTQGYNNWTNGLYGYSWDMMVHSRSHQHVKITYRDGRTGELGYLNPGVFTQSRRWKDHADMLKQYATCLSRLLPKYNVTEPQIYFDIWVSINDRFQQRIFDPRVDIVQAAWSPFQRTSWVQPLLMDLSPWRAKLQEIKSSLDNHTEVVFIADFPGLHLENFVSEDLGNTSIQLLQGEVTVELVAEQKNQTLREGEKMQLPAGEYHKVYTTSPSPSCYMYVYVNTTELALEQDLAYLQELKEKVENGSETGPLPPELQPLLEGEVKGGPEPTPLVQTFLRRQQRLQEIERRRNTPFHERFFRFLLRKLYVFRRSFLMTCISLRNLILGRPSLEQLAQEVTYANLRPFEAVGELNPSNTDSSHSNPPESNPDPVHSEF
modifications: bait human Fc-tagged dimer
B3: ADP382 (protein)
chain: TYDDGICKSSDCIKSAARLIQNMDATTEPCTDFFKYACGGWLKRNVIPETSSRYGNFDILRDELEVVLKDVLQEPKTEDIVAVQKAKALYRSCINESAIDSRGGEPLLKLLPDIYGWPVATENWEQKYGASWTAEKAIAQLNSKYGKKVLINLFVGTDDKNSVNHVIHIDQPRLGLPSRDYYECTGIYKEACTAYVDFMISVARLIRQEERLPIDENQLALEMNKVMELEKEIANATAKPEDRNDPMLLYNKMTLAQIQNNFSLEINGKPFSWLNFTNEIMSTVNISITNEEDVVVYAPEYLTKLKPILTKYSARDLQNLMSWRFIMDLVSSLSRTYKESRNAFRKALYGTTSETATWRRCANYVNGNMENAVGRLYVEAAFAGESKHVVEDLIAQIREVFIQTLDDLTWMDAETKKRAEEKALAIKERIGYPDDIVSNDNKLNNEYLELNYKEDEYFENIIQNLKFSQSKQLKKLREKVDKDEWISGAAVVNAFYSSGRNQIVFPAGILQPPFFSAQQSNSLNYGGIGMVIGHEITHGFDDNGRNFNKDGDLVDWWTQQSASNFKEQSQCMVYQYGNFSWDLAGGQHLNGINTLGENIADNGGLGQAYRAYQNYIKKNGEEKLLPGLDLNHKQLFFLNFAQVWCGTYRPEYAVNSIKTDVHSPGNFRIIGTLQNSAEFSEAFHCRKNSYMNPEKKCRVW
modifications: bait human Fc-tagged dimer
B4: ADP148 (protein)
chain: MASWIGAVILPLLGLLLSLPAGADVKARSCGEVRQAYGAKGFSLADIPYQEIAGEHLRICPQEYTCCTTEMEDKLSQQSKLEFENLVEETSHFVRTTFVSRHKKFDEFFRELLENAEKSLNDMFVRTYGMLYMQNSEVFQDLFTELKRYYTGGNVNLEEMLNDFWARLLERMFQLINPQYHFSEDYLECVSKYTDQLKPFGDVPRKLKIQVTRAFIAARTFVQGLTVGREVANRVSKVSPTPGCIRALMKMLYCPYCRGLPTVRPCNNYCLNVMKGCLANQADLDTEWNLFIDAMLLVAERLEGPFNIESVMDPIDVKISEAIMNMQENSMQVSAKVFQGCGQPKPAPALRSARSAPENFNTRFRPYNPEERPTTAAGTSLDRLVTDIKEKLKLSKKVWSALPYTICKDESVTAGTSNEEECWNGHSKARYLPEIMNDGLTNQINNPEVDVDITRPDTFIRQQIMALRVMTNKLKNAYNGNDVNFQDTSDESSGSGSGSGCMDDVCPTEFEFVTTEAPAVDPDRREVDSS
modifications: bait human Fc-tagged dimer
B5: ADP378 (protein)
chain: PAPGRPPTHNAHNWRLGQAPANWYNDTYPLSPPQRTPAGIRYRIAVIADLDTESRAQEENTWFSYLKKGYLTLSDSGDKVAVEWDKDHGVLESHLAEKGRGMELSDLIVFNGKLYSVDDRTGVVYQIEGSKAVPWVILSDGDGTVEKGFKAEWLAVKDERLYVGGLGKEWTTTTGDVVNENPEWVKVVGYKGSVDHENWVSNYNALRAAAGIQPPGYLIHESACWSDTLQRWFFLPRRASQERYSEKDDERKGANLLLSASPDFGDIAVSHVGAVVPTHGFSSFKFIPNTDDQIIVALKSEEDSGRVASYIMAFTLDGRFLLPETKIGSVKYEGIEFI
modifications: bait human Fc-tagged dimer
B6: ADP287 (protein)
chain: MANPGLGLLLALGLPFLLARWGRAWGQIQTTSANENSTVLPSSTSSSSDGNLRPEAITA
modifications: also: human Fc-tagged dimer
B7: ADP313 (protein)
chain: MAHLHHSCLCFRSWLPAMLAVLLSLAPSASSDISASRPNILLLMADDLGIGDIGCYGNNTMRTPNIDRLAEDGVKLTQHISAASLCTPSRAAFLTGRYPVRSGMVSSIGYRVLQWTGASGGLPTNETTFAKILKEKGYATGLIGKWHLGLNCESASDHCHHPLHHGFDHFYGMPFSLMGDCARWELSEKRVNLEQKLNFLFQVLALVALTLVAGKLTHLIPVSWMPVIWSALSAVLLLASSYFVGALIVHADCFLMRNHTITEQPMCFQRTTPLILQEVASFLKRNKHGPFLLFVSFLHVHIPLITMENFLGKSLHGLYGDNVEEMDWMVGRILDTLDVEGLSNSTLIYFTSDHGGSLENQLGNTQYGGWNGIYKGGKGMGGWEGGIRVPGIFRWPGVLPAGRVIGEPTSLMDVFPTVVRLAGGEVPQDRVIDGQDLLPLLLGTAQHSDHEFLMHYCERFLHAARWHQRDRGTMWKVHFVTPVFQPEGAGACYGRKVCPCFGEKVVHHDPPLLFDLSRDPSETHILTPASEPVFYQVMERVQQAVWEHQRTLSPVPLQLDRLGNIWRPWLQPCCGPFPLCWCLREDDPQ
modifications: bait human Fc-tagged dimer
B8: ADP097 (protein)
chain: SPPRKREEAAAVPAAAPDDLALLKNLRSEEQKKKNRKKLSEKPKPNGRTVEVAEGEAVRTPQSVTAKQPPEIDKKNEKSKKNKKKSKSDAKAVQNSSRHDGKEVDEGAWETKISHREKRQQRKRDKVLTDSGSLDSTIPGIENTITVTTEQLTTASFPVGSKKNKGDSHLNVQVSNFKSGKGDSTLQVSSGLNENLTVNGGGWNEKSVKLSSQISAGEEKWNSVSPASAGKRKTEPSAWSQDTGDANTNGKDWGRSWSDRSIFSGIGSTAEPVSQSTTSDYQWDVSRNQPYIDDEWSGLNGLSSADPNSDWNAPAEEWGNWVDEERASLLKSQEPIPDDQKVSDDDKEKGEGALPTGKSKKKKKKKKKQGEDNSTAQDTEELEKEIREDLPVNTSKTRPKQEKAFSLKTISTSDPAEVLVKNSQPIKTLPPATSTEPSVILSKSDSDKSSSQVPPILQETDKSKSNTKQNSVPPSQTKSETSWESPKQIKKKKKARRET
modifications: bait human Fc-tagged dimer
B9: ADP152 (protein)
chain: MAPSSPRPALPALLVLLGALFPGPGNAQTSVSPSKVILPRGGSVLVTCSTSCDQPKLLGIETPLPKKELLLPGNNRKVYELSNVQEDSQPMCYSNCPDGQSTAKTFLTVYWTPERVELAPLPSWQPVGKNLTLRCQVEGGAPRANLTVVLLRGEKELKREPAVGEPAEVTTTVLVRRDHHGANFSCRTELDLRPQGLELFENTSAPYQLQTFVLPATPPQLVSPRVLEVDTQGTVVCSLDGLFPVSEAQVHLALGDQRLNPTVTYGNDSFSAKASVSVTAEDEGTQRLTCAVILGNQSQETLQTVTIYSFPAPNVILTKPEVSEGTEVTVKCEAHPRAKVTLNGVPAQPLGPRAQLLLKATPEDNGRSFSCSATLEVAGQLIHKNQTRELRVLYGPRLDERDCPGNWTWPENSQQTPMCQAWGNPLPELKCLKDGTFPLPIGESVTVTRDLEGTYLCRARSTQGEVTRKVTVNVLSP
modifications: bait human Fc-tagged dimer
B10: ADP142 (protein)
chain: MGLGARGAWAALLLGTLQVLALLGAAHESAAMAASANIENSGLPHNSSANSTETLQHVPSDHTNETSNSTVKPPTSVASDSSNTTVTTMKPTAASNTTTPGMVSTNMTSTTLKSTPKTTSVSQNTSQISTSTMTVTHNSSVTSAASSVTITTTMHSEAKKGSKFDTGS
modifications: bait human Fc-tagged dimer
B11: ADP362 (protein)
chain: MARAALWLWLCALALSLQPALPQIVATNLPPEDQDGSGDDSDNFSGSGAGALQDITLSQQTPSTWKDTQLLTAIPTSPEPTGLEATAASTSTLPAGEGPKEGEAVVLPEVEPGLTAREQEATPRPRETTQLPTTHLASTTTATTAQEPATSHPHRDMQPGHHETSTPAGPSQADLHTPHTEDGGPSATERAAEDGASSQLPAAEGSGEQDFTFETSGENTAVVAVEPDRRNQSPVDQGATGASQGLLDRKEVLG
modifications: bait human Fc-tagged dimer
B12: 23 (protein)
chain: ENVDTFKCNYAKKKKNGHHIKRHITNDEEKKKEYSFLMLGKENEEENKENKENNQNVNKDNNDNNNNEKKNEEQNHNNEKKQEEVINNNNNNVENKKEEENHNNDKKTDEQNHVNEKKQEGENNKHKKDDTIPPEKKINKENLLEYGTHDKEGHFIPSYKTLTDEILSTNNAMEKASSFLKIACSHVMKLIEFIPESKLSSQYIKVDNKNIYLKDIAVECQNIYFNLEKFSMTLIVFNSKINKFIYSQEK
modifications: bait human Fc-tagged dimer
B13: 42 (protein)
chain: QLRFASLGDWGKDTKGQILNAKYFKQFIKNERVTFIVSPGSNFIDGVKGLNDPAWKNLYEDVYSEEKGDMYMPFFTVLGTRDWTGNYNAQLLKGQGIYIEKNGETSIEKDADATNYPKWIMPNYWYHYFTHFTVSSGPSIVKTGHKDLAAAFIFIDTWVLSSNFPYKKIHEKAWNDLKSQLSVAKKIADFIIVVGDQPIYSSGYSRGSSYLAYYLLPLLKDAEVDLYISGHDNNMEVIEDNDMAHITCGSGSMSQGKSGMKNSKSLFFSSDIGFCVHELSNNGIVTKFVSSKKGEVIYTHKLNIKKKKTLDKVNALQHFAALPNVELTDVPSSGP
modifications: bait human Fc-tagged dimer
B14: 58 (protein)
chain: IQLHSVNYAPLNYIEIGDTLSNKVGELWHSHLNSFIDIVSTKVVNKLEDDLSNGNNLEKFMILLEDDADIFDASAYEGKNLALIQTEFIRKLKDKFKNSKFGQKLKKLGSKAKEKLLSLYQKHKGKLRHFFSILLKSLVIPIAVQFIRKNLNKWKQRTLEATQKLDEQSKNIAQPIINRLYNSFEDKIEEYSQENKINVEDELNALGQLDKDKQDIQKLEEQEKALLQ
modifications: bait human Fc-tagged dimer

Biological target: Circumsporozoite protein (CSP) (Plasmodium falciparum (isolate 3D7), UniProt Q7K740)
Experiment: AVEXIS screen signal:noise (double-corrected)

Binder | binding score
B1 | 1.06
B2 | 0.774
B3 | 0.577
B4 | 0.913
B5 | 1.3
B6 | 1.47
B7 | 0.959
B8 | 1.17
B9 | 1.23
B10 | 0.7
B11 | 0.594

Biological target: FGFR4 ectodomain (Homo sapiens, UniProt P22455)
Experiment: AVEXIS normalised luminescence

Binder | binding score
B12 | 0.913
B13 | 1.51
B14 | 0.979
